Data as given in patent publication US9056102B2, “VEGF-activated trail ligands” (The Regents of the University of California, priority 2005, dated 2015).
“Also recorded” adds a separate entry of the source.

Key:
[1] = tested on: U87MG human glioblastoma cells; assay: Potentiation of R2FasL by chemotherapeutic agents, resazurin cell viability assay; type: cell-based; details: 72 hours drug (Bis VIII 1 μM, camptothecin 20 nM, etoposide 5 μM), then R2FasL 10 μL/well for 40 hours
Experimental: U87MG human glioblastoma cells were plated in 96-well plates in 100 μL of complete medium with 10% fetal calf serum at 25,000 cells/well. Forty-eight hours later cells were treated with either bisindolylmaleimide VIII (Bis VIII, final concentration 1 μM), camptothecin (final concentration 20 nM), etoposide (final concentration 5 μM), or DMSO vehicle (1 μL/well). Bis VIII, camptothecin, and etoposide (all from Biomol) were dissolved in DMSO and added at 1 μL/well. After 72 hours of drug exposure, cells were treated with FLAG antibody affinity-purified R2FasL solution (10 μL/well), and incubated for an additional 40 hours. Cell viability and cytotoxicity were assayed using the resazurin assay and the LDG release assay, respectively, as described above.

[2] = tested on: T-47D human breast cancer cells; assay: Cell death in breast cancer cells, photographed 24 hours after treatment; type: cell-based; details: 25 μL conditioned medium plus 2 nM VEGF-165, 24 hours
Experimental: T-47D human breast cancer cells were plated in 24-well plates (500,000 cells in 500 μl/well) and grown to confluence. Cells were treated with 25 μL/well of conditioned medium from Cos-7 cells transfected either with control plasmid pSV/Neo or plasmid FlkFasL. Cells were also treated with 2 nM VEGF-165 or without. Cells were photographed 24 hours after treatment.

[3] = tested on: T-47D human breast cancer cells; assay: LDH release cytotoxicity assay in breast cancer cells; type: cell-based
Experimental: Apoptosis and cytotoxicity was assayed by three assays: cell counting, FACS analysis of Annexin V positive cells, and LDH (lactate dehydrogenase) release. For cell counting of Jurkat cells, 100 uL of cell suspension was mixed with an equal volume of Trypan blue stain (0.4%), and kept at room temperature for 2 minutes. Live cells were counted using a hemocytometer in triplicate. Mean number of cells/visual field and SEM were calculated using InStat statistical software. For FACS analysis, the Annexin-V-Fluos kit from Roche was used according to the manufacturer's protocol. Briefly, after treatment with FlkFasL or control conditioned medium±VEGF-165 (2 nM, from Peprotech), Jurkat cells were pelleted and resuspended in 100 μL of Annexin-V-Fluos labeling solution (FITC-Annexin V plus propidium iodide) for 15 minutes at room temperature. FACS analysis was performed on a Becton Dickinson FACSCalibur™ using CellQuest Software, with gating to distinguish Annexin V-positive (apoptotic) versus negative cells, and propidium iodide-positive (i.e. necrotic) versus negative cells. The percent of the cell population that was apototic (Annexin-V-positive and propidium iodide-negative) was determined. […] 25 μL of supernatant in triplicate was mixed with LDH detection reagent, and LDH activity quantified by measuring absorbance at 492 nm. Mean and SEM was calculated using InStat statistical software. […]

Jurkat cells [4] = assay: Jurkat cell killing, viable cell counting after trypan blue staining; type: cell-based, human
Experimental: (§1) Apoptosis and cytotoxicity was assayed by three assays: cell counting, FACS analysis of Annexin V positive cells, and LDH (lactate dehydrogenase) release. For cell counting of Jurkat cells, 100 uL of cell suspension was mixed with an equal volume of Trypan blue stain (0.4%), and kept at room temperature for 2 minutes. Live cells were counted using a hemocytometer in triplicate. Mean number of cells/visual field and SEM were calculated using InStat statistical software. For FACS analysis, the Annexin-V-Fluos kit from Roche was used according to the manufacturer's protocol. […] The percent of the cell population that was apototic (Annexin-V-positive and propidium iodide-negative) was determined. […] 25 μL of supernatant in triplicate was mixed with LDH detection reagent, and LDH activity quantified by measuring absorbance at 492 nm. Mean and SEM was calculated using InStat statistical software.
Jurkat cells were plated in 24-well plates (500,000 cells in 500 μl/well) and were treated with increasing volumes of conditioned medium obtained from Cos-7 cells transfected either with either control plasmid pSV/Neo or plasmid pBJ/FlkFasL. […] Thirty-two hours later viable cells were counted after trypan blue staining. […]

Jurkat cells [5] = assay: Induction of apoptosis by FACS analysis of Annexin V-positive/propidium iodide-negative cells; type: cell-based, human
Experimental: as §1
Jurkat cells were plated in 24-well plates (500,000 cells in 500 μl/well) and were treated with either 1 μL/well or 5 μL/well of conditioned medium obtained from Cos-7 cells transfected either with control plasmid pSV/Neo or plasmid pBJ/FlkFasL. […] Induction of apoptosis was assessed by FACS analysis of FITC-Annexin V-positive/propidium-iodide negative cells.

[6] = tested on: Jurkat E6.1 human T cells; assay: Jurkat cell viability, resazurin (AlamarBlue) assay; type: cell-based
Experimental: Conditioned medium (0.001, 0.01, 0.1, 1, or 10 μL) from Cos7 cells transfected with pFLAG/R1[D2]FasL vector was added in the absence or presence of rhVEGF-165 (final concentration 2 nM). Twenty-two hours later cell viability was assayed using the resazurin assay (AlamarBlue reagent from BioSource). Conversion of AlamarBlue substrate to product by viable cells was determined by adding 20 μL of AlamarBlue to each well and measuring absorbance at 540 nm and […]. Calculation of % conversion of substrate to product was performed according to the manufacturer's protocol.
To investigate which growth factors activate R1[D2]FasL the following experiment was performed. […] All growth factors were used at a final concentration of 10 nM, and were from Peprotech or R&D Systems. Nineteen hours later cell viability was assayed using the resazurin assay as described above.
In a similar experiment, the concentration of the growth factors tested was varied. […] Conditioned medium from Cos7 cells transfected with either pFLAG/R2FasL vector or empty pFLAG vector was added (1 μL/well), in the absence or presence of rhVEGF-165 or rmVEGF-165 at the final concentrations of 0.001, 0.01, 0.1, 1, and 10 nM. Eighteen hours later cell viability was assayed using the resazurin assay as described herein.
To determine the ED50 for hVEGF-165 on R1[D2]FasL the following experiment was performed. […] Conditioned medium from Cos7 cells transfected with pFLAG/R1[D2]FasL vector was added (2 μL/well), in the absence or presence of rhVEGF-165 at 0, 0.01, 0.1, 1, 10, 100, 1,000, or 10,000 nM. Nineteen hours later cell viability was assayed using the resazurin assay as described above.
In a similar experiment the ED50 for hVEGF-165 on R2FasL was determined. […] Conditioned medium from Cos7 cells transfected with pFLAG/R2FasL vector was added in the volumes indicated, in the absence or presence of rhVEGF-165 at the final concentrations of […], 0.2 and 2 nM. Eighteen hours later cell viability was assayed using the resazurin assay. The ED50 for rhVEGF-165 was between 20 pM and 200 pM (FIG. 21B).

Molecule: Cn1cc(C2=C(c3cn(CCCN)c4ccccc34)C(=O)NC2=O)c2ccccc21 [BisVIII, bisindolylmaleimide VIII]
- potentiation of R2FasL apoptotic activity (cell viability) [1]: Potentiation of R2FasL apoptotic activity

Molecule: COc1cc([C@@H]2c3cc4c(cc3[C@@H](O[C@@H]3O[C@@H]5CO[C@@H](C)O[C@H]5[C@H](O)[C@H]3O)[C@H]3COC(=O)[C@H]23)OCO4)cc(OC)c1O [etoposide]
- potentiation of R2FasL apoptotic activity (cell viability) [1]: Potentiation of R2FasL apoptotic activity

B1: FlkFasL: Fusion of mouse Flk-1 (VEGFR-2) signal sequence and Ig-like domains 1-3, linker, human FasL amino acids 139-281; SEQ ID NO:22 (protein)
chain: MESKALLAVALWFCVETRAASVGLPGDFLHPPKLSTQKDILTILANTTLQITCRGQRDLDWLWPNAQRDSEERVLVTECGGGDSIFCKTLTIPRVVGNDTGAYKCSYRDVDIASTVYVYVRDYRSPFIASVSDQHGIVYITENKNKTVVIPCRGSISNLNVSLCARYPEKRFVPDGNRISWDSEIGFTLPSYMISYAGMVFCEAKINDETYQSIMYIVVVVGYRIYDVILSPPHEIELSAGEKLVLNCTARTELNVGLDFTWHSPPSKSHHKKIVNRDVKPFPGTVAKMFLSTLTIESVTKSDQGEYTCVASSGRMIKRNRTFVRVHTKPFIAFGSARGTSEKKELRKVAHLTGKSNSRSMPLEWEDTYGIVLLSGVKYKKGGLVINETGLYFVYSKVYFRGQSCNNLPLSHKVYMRNSKYPQDLVMMEGKMMSYCTTGQMWARSSYLGAVFNLTSADHLYVNVSELSLVNFEESQTFFGLYKL
- cell death with exogenous VEGF [2]: drastic increase in cell death; also recorded: drastically increased cell death
- cytotoxicity (LDH release) with exogenous VEGF ([3]; 25 μL conditioned medium plus 2 nM VEGF-165, 48 hours): drastic increase in cytotoxicity
- cytotoxicity (LDH release), endogenous VEGF only ([3]; 25 μL conditioned medium, no exogenous VEGF, 48 hours): induced cytotoxicity
- killing of Jurkat cells as function of VEGF amount (Jurkat cells [4]; 25 μL/well conditioned medium, varying amounts of VEGF-165, 24 hours): dependent on the amount of VEGF
- killing of Jurkat cells (viable cells per hemocytometer field) (Jurkat cells [4]; increasing volumes of Cos-7 conditioned medium, with or without 2 nM VEGF-165, 32 hours): killing of Jurkat cells by FlkFasL in a VEGF-dependent manner
- induction of apoptosis (Annexin V-positive/propidium iodide-negative cells) (Jurkat cells [5]; 1 or 5 μL conditioned medium, with or without 2 nM VEGF-165, 60 minutes): induction of apoptosis by FlkFasL in a VEGF-dependent manner
- induction of apoptosis in the absence of VEGF (Jurkat cells [5]; conditioned medium in the absence of VEGF): did not increase apoptotic induction

B2: R1[D2]FasL: Second domain of human VEGFR1 (amino acids 129 to 230) fused via ARGTS linker to hFasL amino acids 139 to 281 (protein)
chain: MSALLILALVGAAVADYKDDDDKLAAASDTGRPFVEMYSEIPEIIHMTEGRELVIPCRVTSPNITVTLKKFPLDTLIPDGKRIIWDSRKGFIISNATYKEIGLLTCEATVNGHLYKTNYLTHRQTNTIIARGTSEKKELRKVAHLTGKSNSRSMPLEWEDTYGIVLLSGVKYKKGGLVINETGLYFVYSKVYFRGQSCNNLPLSHKVYMRNSKYPQDLVMMEGKMMSYCTTGQMWARSSYLGAVFNLTSADHLYVNVSELSLVNFEESQTFFGLYKL
modifications: FLAG tag, preprotrypsin leader
- induction of apoptosis (cell viability) ([6]; 0.001-10 μL conditioned medium, absence or presence of 2 nM rhVEGF-165, 22 hours): induces apoptosis in a VEGF-dependent manner
- activation by growth factors (cell viability) ([6]; 2 μL/well conditioned medium, rhVEGF-165, rmVEGF-164, rhVEGF-121, rhVEGF-165/rhPlGF-129 heterodimer, rhPlGF-129, each 10 nM, 19 hours): activated by all growth factors tested
